In patent publication US12269859B2, “Synthetic immune receptors and methods of use thereof” (Angeles Therapeutics, Inc., priority 2016, dated 2025):

Test system: target antigen-expressing cell line
Experiment: Jurkat NFAT-GFP assay, coculture with target cell lines expressing the respective target antigen (summary Table 10A)
Format: cell-based, human
Set-up: key: The signs +/−, +, 2+ etc. after the name of the cell lines indicate the relative degree of positivity on the Jurkat-NFAT-GFP assay as measured by the % GFP positive cells; +: relative degree of positivity on the Jurkat-NFAT-GFP assay as measured by the % GFP positive cells; 2+: relative degree of positivity on the Jurkat-NFAT-GFP assay as measured by the % GFP positive cells
Settings: relative % GFP positive cells; for NFAT-GFP ASSAY Positive Cell lines: RAJI: SIR-expressing Jurkat-NFAT-GFP cells cocultured with RAJI; for NFAT-GFP ASSAY Positive Cell lines: NALM6: SIR-expressing Jurkat-NFAT-GFP cells cocultured with NALM6
Method in brief: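 Read-out: % GFP+ cells by FACS. SIR-transduced, puromycin-selected Jurkat NFAT-GFP (IL-2 promoter reporter) cocultured ~4–18 h with target line, E:T ~1:2; parental cells as control; graded +/−, +, 2+ relative to parental.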

| Molecule | NFAT-GFP ASSAY Positive Cell lines: L363 (SIR-expressing Jurkat-NFAT-GFP cells cocultured with L363) | NFAT-GFP ASSAY Positive Cell lines: U266 (SIR-expressing Jurkat-NFAT-GFP cells cocultured with U266) | NFAT-GFP ASSAY Positive Cell lines: RAJI | NFAT-GFP ASSAY Positive Cell lines: NALM6 |
| --- | --- | --- | --- | --- |
| 102116-D01 (protein, Synthetic Immune Receptor (SIR)) MALPVTALLLPLALLLHAARPLEGKPIPNPLLGLDSTGSGEDLKNVFPPEVAVFEPSKAEIAHTQKATLVCLATGFYPDHVELSWWVNGKEVHSGVCTDPQPLKEQPALNDSRYCLSSRLRVSATFWQNPRNHFRCQVQFYGLSENDEWTQDRAKPVTQIVSAEAWGRADCGITSASYHQGVLSATILYEILLGKATLYAVLVSALVLMAMVKRKDSRGRAKRSGSGATNFSLLKQAGDVEENPGPTSTMALPVTALLLPLALLLHAARPQAVLTQPPSASGTPGQRVTISCSGSSSNIGSYTVSWYQQLPGTAPKFLIYSNNQRPSGVPDRFSGSKSGTSASLAISGLQSEDEADYYCAAWDDSLNGYVFGTGTKVTVLGGGGGSGGGGSGGGGSEVQLVQSGAEVKKPGESLKISCKGSGYDFTTYWIGWVRQMPGKGLEWMGIIYPGDSDTRYSPSVRGRVTISADKSINTAYLQWSSLEASDTAMYYCARMWTFSQDGWGQGTLVTVSSTREQKLISEEDGSGIQNPDPAVYQLRDSKSSDKSVCLFTDFDSQTNVSQSKDSDVYITDKCVLDMRSMDFKSNSAVAWSNKSDFACANAFNNSIIPEDTFFPSSDVPCDVKLVEKSFETDTNLNFQNLSVIGFRILLLKVAGFNLLMTLRLWSSRAKRSGSGVKQTLNFDLLKLAGDVESNPGPSRGHMTEYKPTVRLATRDDVPRAVRTLAAAFADYPATRHTVDPDRHIERVTELQELFLTRVGLDIGKVWVADDGAAVAVWTTPESVEAGAVFAEIGPRMAELSGSRLAAQQQMEGLLAPHRPKEPAWFLATVGVSPDHQGKGLGSAVVLPGVEAAERAGVPAFLETSAPRNLPFYERLGFTVTADVEVPEGPRTWCMTRKPGA | L363 (2+), U266 | (2+) | – | – |
| 032216-C04 (protein, Polynucleotide encoding a Synthetic Immune Receptor (SIR)) MALPVTALLLPLALLLHAARPDIVLTQSPATLSLSPGDRATISCRASESVTILGSHLIYWYQQKPGQPPRLLIQLASNVQTGVPARFSGSGSRTDFTLTISSVEPEDFAVYYCLQSRTIPRTFGQGTKLEIKRLEGKPIPNPLLGLDSTGSGEDLKNVFPPEVAVFEPSKAEIAHTQKATLVCLATGFYPDHVELSWWVNGKEVHSGVCTDPQPLKEQPALNDSRYCLSSRLRVSATFWQNPRNHFRCQVQFYGLSENDEWTQDRAKPVTQIVSAEAWGRADCGITSASYHQGVLSATILYEILLGKATLYAVLVSALVLMAMVKRKDSRGRAKRSGSGATNFSLLKQAGDVEENPGPTSMDWIWRILFLVGAATGAHSFEQVQLVQSGPEVKKPGESVKISCKASGYTFRHYSMNWVKQAPGQGLKWMGRINTESGVPIYADDFKGRFSFTVDTSASTAYLEISSLTSEDTAVYFCSNDYLYSLDFWGQGTTLTVSSTREQKLISEEDGSGIQNPDPAVYQLRDSKSSDKSVCLFTDFDSQTNVSQSKDSDVYITDKCVLDMRSMDFKSNSAVAWSNKSDFACANAFNNSIIPEDTFFPSSDVPCDVKLVEKSFETDTNLNFQNLSVIGFRILLLKVAGFNLLMTLRLWSSRAKRSGSGVKQTLNFDLLKLAGDVESNPGPSRGHMTEYKPTVRLATRDDVPRAVRTLAAAFADYPATRHTVDPDRHIERVTELQELFLTRVGLDIGKVWVADDGAAVAVWTTPESVEAGAVFAEIGPRMAELSGSRLAAQQQMEGLLAPHRPKEPAWFLATVGVSPDHQGKGLGSAVVLPGVEAAERAGVPAFLETSAPRNLPFYERLGFTVTADVEVPEGPRTWCMTRKPGA | – | – | 2+ | – |
| 110217-A03 (protein) MALPVTALLLPLALLLHAARPDVVMTQSPSSLSASVGDRVTITCRASQDISKYLNWYQQKPGKAPKLLIYHTSRLHSGVPSRFSGSGSGTDFTLTISSLQPEDFATYYCQQGNTLPYTFGGGTKVEIKLEDLKNVFPPEVAVFCPSEAEISHTQKATLVCLATGFYPDHVELSWWVNGKEVHSGVSTDPQPLKEQPALNDSRYCLSSRLRVSATFWQNPRNHFRCQVQFYGLSENDEWTQDRAKPVTQIVSAEAWGRADCGFTSESYQQGVLSATILYEILLGKATLYAVLVSALVLMAMVKRKDSRGRAKRSGSGATNFSLLKQAGDVEENPGPTSMDWIWRILFLVGAATGAHSFEQVQLQESGPGLVKPSQTLSLTCTVSGVSLPDYGVSWIRQPPGKGLEWIGVIWGSETTYYNSALKSRVLISVDTSKNQVSLKLSSVTAADTAVYYCARHYYYGGSYAMDYWGQGTTVTVSSTRIQNPDPAVYQLRDCKSSDKSVCLFTDFDSQTNVSQSKDSDVYITDKTVLDMRSMDFKSNSAVAWSNKSDFACANAFNNSIIPEDTFFPSPESSCDVKLVEKSFETDTNLNFQNLSVIGFRILLLKVAGFNLLMTLRLWSS | – | – | RAJI (+/−), NALM6 | (+/−) |
| 110217-B04 (protein) MALPVTALLLPLALLLHAARPDVVMTQSPSSLSASVGDRVTITCRASQDISKYLNWYQQKPGKAPKLLIYHTSRLHSGVPSRFSGSGSGTDFTLTISSLQPEDFATYYCQQGNTLPYTFGGGTKVEIKLEDLKNVFPPEVAVFEPSEAEISHTQKATLVCLATGFYPDHVELSWWVNGKEVHSGVSTCPQPLKEQPALNDSRYCLSSRLRVSATFWQNPRNHFRCQVQFYGLSENDEWTQDRAKPVTQIVSAEAWGRADCGFTSESYQQGVLSATILYEILLGKATLYAVLVSALVLMAMVKRKDSRGRAKRSGSGATNFSLLKQAGDVEENPGPTSMDWIWRILFLVGAATGAHSFEQVQLQESGPGLVKPSQTLSLTCTVSGVSLPDYGVSWIRQPPGKGLEWIGVIWGSETTYYNSALKSRVLISVDTSKNQVSLKLSSVTAADTAVYYCARHYYYGGSYAMDYWGQGTTVTVSSTRIQNPDPAVYQLRDSKSSDKSVCLFTDFDSQTNVSQSKDSDVYICDKTVLDMRSMDFKSNSAVAWSNKSDFACANAFNNSIIPEDTFFPSPESSCDVKLVEKSFETDTNLNFQNLSVIGFRILLLKVAGFNLLMTLRLWSS | – | – | RAJI (+/−), NALM6 | (+/−) |
| 110217-C03 (protein) MALPVTALLLPLALLLHAARPDVVMTQSPSSLSASVGDRVTITCRASQDISKYLNWYQQKPGKAPKLLIYHTSRLHSGVPSRFSGSGSGTDFTLTISSLQPEDFATYYCQQGNTLPYTFGGGTKVEIKLEDLKNVFPPEVAVFEPSEAEISHTQKATLVCLATGFYPDHVELSWWVNGKEVHSGVSTDPQPLKEQPALNDSRYCLCSRLRVSATFWQNPRNHFRCQVQFYGLSENDEWTQDRAKPVTQIVSAEAWGRADCGFTSESYQQGVLSATILYEILLGKATLYAVLVSALVLMAMVKRKDSRGRAKRSGSGATNFSLLKQAGDVEENPGPTSMDWIWRILFLVGAATGAHSFEQVQLQESGPGLVKPSQTLSLTCTVSGVSLPDYGVSWIRQPPGKGLEWIGVIWGSETTYYNSALKSRVLISVDTSKNQVSLKLSSVTAADTAVYYCARHYYYGGSYAMDYWGQGTTVTVSSTRIQNPDPAVYQLRDSKSSDKSVCLFTDFDSQTNVSQSKDSDVYICDKTVLDMRSMDFKSNSAVAWSNKSDFACANAFNNSIIPEDTFFPSPESSCDVKLVEKSFETDTNLNFQNLSVIGFRILLLKVAGFNLLMTLRLWSS | – | – | RAJI (+/−), NALM6 | (+/−) |
